Source: patent publication US7422862B2, “Methods for identifying modulators of apoptosis” (The Burnham Institute, priority 2001, dated 2008)

How the values were obtained:
Type in all cases: binding
Bak = target: T1, Bak (Homo sapiens, UniProt Q16611); experiment: Co-immunoprecipitation with Bcl-2 family proteins in HEK293T cells; set-up: expressed in transfected cells; host or cells: HEK293T
T1 sequence (Q16611 1-211): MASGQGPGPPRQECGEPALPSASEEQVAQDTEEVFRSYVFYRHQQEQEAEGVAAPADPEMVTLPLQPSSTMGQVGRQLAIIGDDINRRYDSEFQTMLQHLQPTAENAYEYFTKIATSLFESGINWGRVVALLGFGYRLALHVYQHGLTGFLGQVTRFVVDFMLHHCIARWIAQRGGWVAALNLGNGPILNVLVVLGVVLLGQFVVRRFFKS
Source text: (§1) (A) HEK293T cells were transfected with pcDNA3-myc plasmids encoding Bax or other Bcl-2 family proteins with GFP, GFP-HN, or GFP-HN(C8P). Cell lysates were immunoprecipitated with polyclonal anti-GFP antibody. The immunoprecipitates or the lysates were blotted with anti-myc or anti-GFP antibodies, respectively. The slower migrating form of GFP seen in lane 1 (asterisk)represents an alternative form of GFP produced from the wild-type (control) p-EGFP-Cl plasmid (http://clonotech.com). (B) Testes of three-week-old mice were homogenized in lysis buffer (0.1% Triton X-100, 50 mM Tris-HCl, pH7.5, 1 mM EDTA, plus protease inhibitor cocktail). The lysates were immunoprecipitated with control rabbit serum or polyclonal anti-mouse Bax antibody. The immunoprecipitates or the lysates were subjected to electrophoresis in Tris/Tricine gels (16% T, 3% C), electroblotted to PVDF membrane, and immunoblotted with polyclonal anti-HN antibody or monoclonal anti-Bax antibody 6A7 (Trevigen). (C) The affinity (Kd) of Bax/HN interaction was measured by fluorescence polarization assay, using various concentrations of purified recombinant Bax and 40 nM rhodamine-conjugated HN peptide. Control peptide from CD40 is also shown (mean +Std Dev; n=3).
Furthermore, multiple Bcl-2 family proteins were surveyed for interactions with Humanin by coimmunoprecipitation experiments (FIG. 5A). […]

endogenous Bax = target: T2, endogenous Bax (Mus musculus, UniProt Q07813); experiment: Co-immunoprecipitation of endogenous Humanin and Bax from mouse testis lysates; details: endogenous peptide and protein
T2 construct: from tissue; host or cells: testes of three-week-old mice
Source text: as §1, with “(C) The affinity (Kd) of Bax/HN interaction was measured by fluorescence polarization assay, using various concentrations of purified recombinant Bax and 40 nM rhodamine-conjugated HN peptide. Control peptide from CD40 is also shown (mean +Std Dev; n=3).” left out
A rabbit polyclonal antibody raised against Humanin peptide (P04, gift of Dr. Ikuo Nishimoto) was used to examine whether endogenous Humanin peptide interacts with endogenous Bax polypeptide. […] In addition, endogenous Humanin was determined to be a cytosolic protein, based on subcellular fractionation experiments.

Bax (S184K) = target: T3, Bax (S184K) (Mus musculus, UniProt Q07813, S184K); experiment: Yeast two-hybrid assay; details: EGY48 cells, pGilda-Bax (S184K) and pYESTrp-Humanin
T3 construct: expressed in transfected cells; host or cells: S. cerevisiae EGY48
Source text: A yeast two-hybrid system is designed to screen a cDNA library for a gene encoding a polypeptide that interacts with a known target (bait) polypeptide (Golemis, et al., In Current Protocols in Molecular Biology, John Wiley & Sons, Inc., Ch.20.0 and 20.1.(1996); Mendelsohn and Brent, Current Opinion in Biotechnology 5:482-486 (1994)). In this experiment, a S184K (a serine at position 184 in the transmembrane domain mutated to a lysine) mutant of mouse Bax was used as a bait, since the wild type Bax induces cell death in yeast.
Bax (S184K) cDNA was constructed in a pgilda yeast expression vector at EcoRV Xhol sites, producing a LexA-Bax fusion polypeptide. The prokaryotic LexA polypeptide, which functions as the DNA binding domain and binds to LexA operators, was used. A human adult testes cDNA library in a pYESTrp vector was purchased from Invitrogen. This library contains library cDNA fused with a B42 transcription activation domain (an 88-residue acidic E. coli peptide). The pGilda-Bax (S184K) and cDNA library plasmids were co-transfected into EGY48 yeast cells together with a reporter plasmid pSH18-34. The transformants were cultured on leucine-deficient galactose-containing media, which induces gene expression through the GAL1 promoter located within both the pGilda and pYESTrp vectors. […]

T3 sequence (Q07813 whole entry S184K): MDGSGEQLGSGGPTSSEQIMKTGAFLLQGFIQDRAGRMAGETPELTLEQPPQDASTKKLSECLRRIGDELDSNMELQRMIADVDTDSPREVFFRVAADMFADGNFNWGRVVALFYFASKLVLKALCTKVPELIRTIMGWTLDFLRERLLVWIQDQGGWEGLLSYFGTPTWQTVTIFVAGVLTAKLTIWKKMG
T2 sequence (Q07813 whole entry): as the sequence (Q07813 whole entry S184K) above, with K184S counted along it

co-immunoprecipitation with Bak (Bak) | Substance | co-immunoprecipitation with Bax from mouse testis lysates (endogenous Bax) | yeast growth on Leu-deficient media (two-hybrid interaction) (Bax (S184K))
did not co-immunoprecipitate | GFP-HN: Wild-type full-length Humanin fused to Green Fluorescent Protein | – | –
– | Humanin: 24 amino acid polypeptide, cytosolic form of human Humanin (SEQ ID NO:2); used as synthetic peptide or expressed fusion | co-immunoprecipitated | grew on Leu-media
